Experimental data reported in article PMC3223699 (Cell Death & Disease, 2011).
Ends that are not written are not given here.

Tests used:
P. falciparum 3D7 = assay: Recovery of treated parasite culture after peptide removal; format: cell-based, Plasmodium falciparum; details: 50 μM (~EC50), removed at 4 h, then grown 24 h
P. falciparum = details: asexual stage P. falciparum; ref [30], [31]; cited from earlier work
[1] = biological target: recombinant PfClpQ, mature region (38-170 aa) (P. falciparum); assay: SPR

FIKQYDLKKYII [FI-peptide]
growth inhibition after peptide removal at 4 h (P. falciparum 3D7): < 20%

CCN(CC)CCCC(C)Nc1ccnc2cc(Cl)ccc12 (centres unmarked) [chloroquine]
apoptosis-like features (in words) (P. falciparum): loss of mitochondrial membrane potential (Δψm), activation of caspase-like cytseine proteases and nuclear DNA fragmentation

FIKQYDLKKYII [FI-peptide, 12-amino-acid synthetic peptide corresponding to the C terminus of PfClpY]
Kd [1]: 62.4 µM
koff [1]: 0.00976 s⁻¹
kon [1]: 157 M⁻¹ s⁻¹
